Data on 2 proteins can be found in article doi:10.1101/2020.10.05.326595 (bioRxiv, 2020).

The data set “crystal structure” concerns the molecule itself. Description: crystal structure.
The data set “SEC-SAXS” concerns the molecule itself. Description: SEC-SAXS.

B1: ZTL G46A:G80R (LOV domain construct, residues 29-165) (domain or fragment, UniProt Q94BT6 29-165, looked up)
chain: GGPIPYPVGNLLHTAPCAFVVTDAVEPDQPIIYVNTVFEMVTGYRAEEVLGRNCRFLQCRGPFAKRRHPLVDSMVVSEIRKCIDEGIEFQGELLNFRKDGSPLMNRLRLTPIYGDDDTITHIIGIQFFIETDIDLGP
On to B1, for which, in “crystal structure”, the binding result is given as “binds”.

B2: ZTL G46S:G80R (LOV domain construct, residues 29-165) (domain or fragment, UniProt Q94BT6 29-165, looked up)
chain: GGPIPYPVGNLLHTAPCSFVVTDAVEPDQPIIYVNTVFEMVTGYRAEEVLGRNCRFLQCRGPFAKRRHPLVDSMVVSEIRKCIDEGIEFQGELLNFRKDGSPLMNRLRLTPIYGDDDTITHIIGIQFFIETDIDLGP
Broadly, the stoichiometry N is the number of molecules, sites or subunits per partner or assembly. For the protein B2, the “stoichiometry N” value in the data set “SEC-SAXS” was 2.
